The values that follow come from US20230374116A1 (ROSALIND FRANKLIN INSTITUTE, published 2023).

Test [1] deals with T1, SARS-CoV-2 receptor-binding domain (amino acids 330-532), prototypical Wuhan/Victoria (SARS-CoV-2 (Wuhan/Victoria), UniProt P0DTC2 330-532). Description: SPR, VHH analyte over immobilised RBD. On the technique in general: In SPR one partner is held on a chip, and binding of the other changes the refractive index at the surface.
For test [2], the target named is Spike protein on live SARS-CoV-2 Victoria strain (SARS-CoV-2 (Victoria), UniProt P0DTC2 14-1273). Description: cell-based or functional assay.
Test [3] has as its target T1, SARS-CoV-2 receptor-binding domain …. Description: SPR, VHH analyte, biotinylated RBD ligand.
Test [4] has the same target. Description: SPR.
Test [5] has the same target. Description: SPR, RBD binding kinetics.
Test [6] has the same target. The test is described as follows: X-ray crystallography.
For test [7], the target named is SARS-CoV-2 receptor-binding domain fused to hIgG1 Fc (SARS-CoV-2 (Wuhan/Victoria), UniProt P0DTC2 330-532). The test is described as follows: SPR, VHH analyte, RBD-Fc ligand.
Test [8] concerns the target T1, SARS-CoV-2 receptor-binding domain …. Description: SPR, RBD analyte, VHH_H6-Fc ligand.

B1: C5 (VHH)
VHH: QVQLVESGGGSVQAGGSLTLSCVASGVTLGRHAIGWFRQAPGKERERVSCIRTFDGITSYVESTKGRFTISSNNAMNTVYLQMNSLKPEDTAVYFCALGVTAACSDNPYFWGQGTQVTVSS
notes: also called VHH C5
Usually Kd stands for the equilibrium constant for the complex coming apart. In test [1], B1 registered a Kd of 0.099 nM and a T1/2 of 12 min. Also, in test [2], the “IC50, neutralisation of SARS-CoV2, micro-titre neutralisation assay” value came out at 32 nM. In test [3], this molecule returned a Kd of 0.099 nM and a T1/2 of 12 min.

B2: F2-SUMO-C5-Fc (Fc fusion)
chain: QVQLVESGGGLVQAGGSLRLACIASGRTFHSYVMAWFRQAPGKEREFVAAISWSSTPTYYGESVKGRFTISRDNAKNTVYLQMNRLKPEDTAVYFCAADRGESYYYTRPTEYEFWGQGTQVTVSSGSGSGSDSEVNQEAKPEVKPEVKPETHINLKVSDGSSEIFFKIKKTTPLRRLMEAFAKRQGKEMDSLRFLYDGIRIQADQTPEDLDMEDNDIIEAHREQIGSGSGSQVQLVESGGGSVQAGGSLTLSCVASGVTLGRHAIGWFRQAPGKERERVSCIRTFDGITSYVESTKGRFTISSNNAMNTVYLQMNSLKPEDTAVYFCALGVTAACSDNPYFWGQGTQVTVSS
notes: also called F2-GSGSGS-SUMO-GSGSGS-C5
What is called koff is a measure of how fast the partners let go of each other. Higher therefore signals a short-lived complex. What is called kon is the rate constant with which the complex forms. Lower therefore signals slower complex formation. B2: the “fold increase in affinity on combining the VHHs” value in test [4] is roughly 85 fold. Besides, in test [5], the Kd stood at 0.00075 nM, the T1/2 came to 660 min, the koff was found to be 1.7e-05 s⁻¹ and the kon turned out to be 2.3e+07 M⁻¹ s⁻¹.

B3: A8 (VHH)
VHH: QVQLVESGGGLVQAGGSLRLSCAASGGTFSTAAMGWFRQAPGEERECVASIGWRGVRTWYADSVKGRFTISRDNPQNTVYLQMNNLKSGDTAVYYCAASVGNYGLPWAHFEYDFWGQGIQVTVSS
notes: also called 2_A8
Take B3: in test [6], the binding result is “binds”.

B4: VHH_H6 (VHH)
VHH: QVQLVESGGGLVQPGGSLTLSCVASESSLAPYRVAWFRQAPGKEREGVSCISRDAHPTSTYYTASVKGRFTMSRDNAKNTVYLQMNSLKPSDTAVYYCATDLGGYCSDSNYPRAWWGQGTQVTVSS
In test [7], B4 returned a Kd of 0.472 nM and a T1/2 of 31 min.

B5: VHH_H6-Fc (Fc fusion)
chain: QVQLVESGGGLVQPGGSLTLSCVASESSLAPYRVAWFRQAPGKEREGVSCISRDAHPTSTYYTASVKGRFTMSRDNAKNTVYLQMNSLKPSDTAVYYCATDLGGYCSDSNYPRAWWGQGTQVTVSS
In turn, B5 yielded a Kd in test [8] of 0.261 nM.
